# Laboratory results: publication PMC8025756
# Like-named read-outs stand apart in the source and are kept apart here.
# Columns and labels:
# [1] = target: two-chain factor VII-activating protease (tcFSAP) (human); test: enzyme inhibition kinetics
# [2] = target: two-chain factor VII-activating protease (tcFSAP) (human); test: enzyme inhibition kinetics; remark: listed apart in the source
# [3] = target: two-chain factor VII-activating protease (tcFSAP) (human); test: enzyme inhibition kinetics; remark: listed apart in the source
# [4] = target: two-chain factor VII-activating protease (tcFSAP) (human); test: enzyme inhibition kinetics; remark: listed apart in the source
# [5] = target: two-chain factor VII-activating protease (tcFSAP) (human); test: SDS-stable complex formation, SDS-PAGE and Western blot
# [6] = target: two-chain factor VII-activating protease (tcFSAP) (human); test: enzyme inhibition kinetics; remark: listed apart in the source
substance,measurement,setting,value
recombinant human wild-type plasminogen activator inhibitor-1 (PAI-1) (from UniProt P05121 24-402) (natural protein),second-order inhibition rate constant Ka,[1],1.61e+06 M⁻¹ s⁻¹
same,second-order inhibition rate constant Ka,[2],338000 M⁻¹ s⁻¹
same,second-order inhibition rate constant Ka,[3],443000 M⁻¹ s⁻¹
same,second-order inhibition rate constant Ka,[4],558000 M⁻¹ s⁻¹
same,stoichiometry N,[5],1
same,second-order inhibition rate constant Ka,[6],623000 M⁻¹ s⁻¹
